Data as given in patent publication US20240383982A1 (Genmab, published 2024).
Substitutions are numbered along the chain they refer to. Numbers in names are those of the source. Blank lines part the entries; values can stand above or below the binder they belong to.

Assays:
[1] = target: T1, human B7H4, full length, on cells (human, UniProt Q7Z7D3 25-282); assay: flow cytometry, HEK-293F cells transiently transfected with human B7H4, PE anti-human IgG F(ab')2 [panel Human B7H4]
T1 construct: Uniprot Q7Z7D3; Used for transfected HEK cells and for the B7H4-expressing human tumor cell lines (endogenous B7H4); also called VTCN1
T1 sequence: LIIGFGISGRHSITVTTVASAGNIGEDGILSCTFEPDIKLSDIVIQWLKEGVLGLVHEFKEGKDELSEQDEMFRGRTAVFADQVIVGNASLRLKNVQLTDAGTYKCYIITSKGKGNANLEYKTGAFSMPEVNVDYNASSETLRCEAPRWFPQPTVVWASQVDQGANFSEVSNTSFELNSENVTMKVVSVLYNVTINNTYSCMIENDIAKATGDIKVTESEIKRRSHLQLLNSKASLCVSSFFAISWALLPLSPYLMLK
Protocol: (§1) Cells (3×10⁴ cells/well) were incubated in polystyrene 96-well round-bottom plates (Greiner bio-one, cat. no. 650180) with serial dilutions of antibodies (ranging from 0.000458 to 30 μg/mL in 4-fold dilution steps) in 100 μL PBS/0.1% BSA/0.02% azide (staining buffer) at 4° C. for 30 min. Experiments were performed in technical duplicate. After washing twice in staining buffer, cells were incubated in 50 μL secondary antibody at 4° C. for 30 min. As a secondary antibody, R-Phycoerythrin (PE)-conjugated goat-anti-human IgG F(ab′)₂ (1:500 in FACS buffer; Jackson ImmunoResearch Laboratories, Inc., West Grove, PA, cat. no. 109-116-098), was used. Cells were washed twice in staining buffer, re-suspended in 30 μL FACS buffer containing Topro-3 (1:10,000 dilution) and analyzed on an iQue Screener (Intellicyt Corporation, USA). Binding curves were analyzed using non-linear regression (sigmoidal dose-response with variable slope) using GraphPad Prism V7.02 software (GraphPad Software, San Diego, CA, USA).

[2] = target: T2, rabbit (Oryctolagus cuniculus) B7H4, full length, on HEK-293F cells (rabbit, UniProt Q7Z7D3 25-282 (human entry)); assay: flow cytometry, HEK-293F cells transiently transfected with rabbit B7H4, PE anti-human IgG F(ab')2 [panel Rabbit B7H4]
T2 construct: Uniprot G1TQE8; also called rabbit B7H4
T2 chain: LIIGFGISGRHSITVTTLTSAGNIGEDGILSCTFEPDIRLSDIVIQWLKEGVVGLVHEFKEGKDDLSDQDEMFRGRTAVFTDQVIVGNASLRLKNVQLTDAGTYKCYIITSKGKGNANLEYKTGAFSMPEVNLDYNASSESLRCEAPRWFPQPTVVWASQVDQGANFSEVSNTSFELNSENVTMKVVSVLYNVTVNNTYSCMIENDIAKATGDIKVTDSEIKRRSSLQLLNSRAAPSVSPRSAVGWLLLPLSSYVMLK
Protocol: as §1

[3] = target: T3, cynomolgus monkey (Macaca fascicularis) B7H4 transcript 1, full length, on HEK-293F cells (cynomolgus monkey, UniProt Q7Z7D3 25-282 (human entry)); assay: flow cytometry, HEK-293F cells transiently transfected with cynomolgus monkey B7H4, PE anti-human IgG F(ab')2 [panel Cynomolgus monkey B7H4]
T3 construct: Uniprot A0A2K5U6P5; also called cynomolgus monkey B7H4; cynomolgus B7H4
T3 chain: T1 sequence with L53I, F242L, S252A
Protocol: as §1

[4] = target: T4, mouse (Mus musculus) B7H4, full length, on HEK-293F cells (mouse, UniProt Q7TSP5 25-257); assay: flow cytometry, HEK-293F cells transiently transfected with mouse B7H4, PE anti-human IgG F(ab')2 [panel Mouse B7H4]
T4 construct: Uniprot Q7TSP5; also called mouse B7H4
T4 sequence: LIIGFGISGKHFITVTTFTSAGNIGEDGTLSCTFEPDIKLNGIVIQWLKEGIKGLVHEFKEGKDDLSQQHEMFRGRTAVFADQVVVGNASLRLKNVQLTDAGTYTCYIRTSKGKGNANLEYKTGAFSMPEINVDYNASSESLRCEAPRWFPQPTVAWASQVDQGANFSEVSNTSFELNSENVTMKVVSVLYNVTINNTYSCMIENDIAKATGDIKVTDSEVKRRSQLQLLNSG
Protocol: as §1

[5] = target: T5, dog (Canis familiaris) B7H4, full length, on HEK-293F cells (dog, UniProt Q7Z7D3 25-282 (human entry)); assay: flow cytometry, HEK-293F cells transiently transfected with dog B7H4, PE anti-human IgG F(ab')2 [panel Dog B7H4]
T5 construct: Uniprot F1P8R9; also called dog B7H4
T5 chain: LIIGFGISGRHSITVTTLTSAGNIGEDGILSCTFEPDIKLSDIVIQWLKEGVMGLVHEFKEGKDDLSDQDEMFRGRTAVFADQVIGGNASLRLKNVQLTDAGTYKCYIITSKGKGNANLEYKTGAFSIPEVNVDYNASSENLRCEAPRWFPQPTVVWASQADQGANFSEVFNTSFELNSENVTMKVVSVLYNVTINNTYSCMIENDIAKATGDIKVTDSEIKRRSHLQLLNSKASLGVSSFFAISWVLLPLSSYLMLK
Protocol: as §1

[6] = target: T3, cynomolgus monkey (Macaca fascicularis) …; assay: flow cytometry, HEK-293F cells transfected with cynomolgus monkey B7H4 [panel Cynomolgus monkey B7H4]
Protocol: as §1

[7] = target: T1, human B7H4, full length, on cells; assay: flow cytometry on MDA-MB-468 tumor cells [MDA-MB-468 left panel]
Protocol: as §1
Binding was analyzed by flow cytometry as described above.

B1: bsIgG1-huCD3-H101G-FEALxB7H4-C1-N52S-FEAR (bispecific antibody)
heavy 1: not shown
light 1: not shown
heavy 2: QVQLQQWGAGLLKPSETLSLTCAVYGGSFSGYYWSWIRQPPGKGLEWIGEISHSGSTNYNPSLKSRVTISIDTSKNQFSLKLTSVTAADTAVFYCARGLFNWNFDSWGQGTLVTVSSASTKGPSVFPLAPSSKSTSGGTAALGCLVKDYFPEPVTVSWNSGALTSGVHTFPAVLQSSGLYSLSSVVTVPSSSLGTQTYICNVNHKPSNTKVDKRVEPKSCDKTHTCPPCPAPEFEGGPSVFLFPPKPKDTLMISRTPEVTCVVVAVSHEDPEVKFNWYVDGVEVHNAKTKPREEQYNSTYRVVSVLTVLHQDWLNGKEYKCKVSNKALPAPIEKTISKAKGQPREPQVYTLPPSREEMTKNQVSLTCLVKGFYPSDIAVEWESNGQPENNYKTTPPVLDSDGSFFLYSRLTVDKSRWQQGNVFSCSVMHEALHNHYTQKSLSLSPGK
light 2: DIQMTQSPSSLSASVGDRVTITCRASQGIRNDLGWYQQKPGKAPKRLIYGASSLQSGVPSRFSGSGSGTEFTLTISSLQPEDFATYYCLQHNSYPRTFGQGTTVEIKRTVAAPSVFIFPPSDEQLKSGTASVVCLLNNFYPREAKVQWKVDNALQSGNSQESVTEQDSKDSTYSLSSTLTLSKADYEKHKVYACEVTHQGLSSPVTKSFNRGEC
notes: also called bslgG1-huCD3-H101G-FEALxB7H4-C1-N52S-FEAR; BslgG1-huCD3-H101G-FEALxB7H4-C1-N52S-FEAR
- EC50 (read off the curve) [1]: ~0.9 µg/mL
- binding result [2]: binds
- EC50 (read off the curve) [3]: ~0.6 µg/mL
- binding result [4]: binds
- binding result [5]: binds

- binding result [6]: binds
- EC50 (read off the curve) [7]: ~0.2 µg/mL
B2: IgG1-B7H4-C5-FEAR (antibody, V domains shown)
VH: QLQLQESGPGLVKPSETLSLTCTVSGGSIKSGSYYWGWIRQPPGKGLEWIGNIYYSGSTYYNPSLRSRVTISVDTSKNQFSLKLSSVTAADTAVYYCAREGSYPNQFDPWGQGTLVTVSS
VL: EIVMTQSPATLSVSPGERATLSCRASQSVSSNLAWYQQKPGQAPRLLIYGASTRATGIPARFSGSGSGTEFTLTISSLQSEDFAVYYCQQYHSFPFTFGGGTKVEIKR
notes: Full length IgG1 FEAR, kappa; variable domains from US20190085080A1

- EC50 (read off the curve) [1]: ~0.3 µg/mL
- EC50 (read off the curve) [6]: ~0.1 µg/mL
- EC50 (read off the curve) [7]: ~1 µg/mL
- EC50 (read off the curve) [2]: ~0.3 µg/mL
- EC50 (read off the curve) [3]: ~0.2 µg/mL
- EC50 (read off the curve) [4]: ~0.3 µg/mL
- EC50 (read off the curve) [5]: ~0.3 µg/mL
B3: IgG1-B7H4-C1-N52S-FEAR (antibody, V domains shown)
VH: QVQLQQWGAGLLKPSETLSLTCAVYGGSFSGYYWSWIRQPPGKGLEWIGEISHSGSTNYNPSLKSRVTISIDTSKNQFSLKLTSVTAADTAVFYCARGLFNWNFDSWGQGTLVTVSS
VL: DIQMTQSPSSLSASVGDRVTITCRASQGIRNDLGWYQQKPGKAPKRLIYGASSLQSGVPSRFSGSGSGTEFTLTISSLQPEDFATYYCLQHNSYPRTFGQGTTVEIKR
notes: Full length human IgG1 with L234F, L235E, D265A, K409R (FEAR) heavy chain constant region and kappa light chain; bivalent, monospecific; also called IgG1-B7H4-C1-052S-FEAR
